In US20260265374A1 (JW THERAPEUTICS R AND D SHANGHAI, published 2026):
Changes are numbered by the printed parent chain.

T1: Soluble CD19 protein (amino acids 20-291) (UniProt P15391 20-291)
T1 construct: range 20-291; Analyte in SPR, 300 nM to 4.69 nM; also called cognate ligand CD19
T1 sequence (looked up): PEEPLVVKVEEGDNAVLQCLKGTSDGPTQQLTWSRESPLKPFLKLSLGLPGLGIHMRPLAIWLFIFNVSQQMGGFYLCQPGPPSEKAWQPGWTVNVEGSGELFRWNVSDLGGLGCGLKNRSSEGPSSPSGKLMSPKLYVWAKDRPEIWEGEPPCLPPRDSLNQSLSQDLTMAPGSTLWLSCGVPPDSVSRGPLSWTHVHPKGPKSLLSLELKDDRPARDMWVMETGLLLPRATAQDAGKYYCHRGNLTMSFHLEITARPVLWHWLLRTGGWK

B1: Antibody comprising scFv-2 fused with human IgG1 Fc fragment (Fc fusion)
chain: DIQMTQTTSSLSASLGDRVTISCRASQDISKYLNWYQQRPDGTVKLLIYHTSRLHSGVPSRFSGSGSGTDYSLTISNLEPEDIATYFCQQGNTLPYTFGGGTKLEITGSTSGSGKPGSGEGSTKGEVKLQESGPGLVAPSQSLSVTCTVSGVSLPDYGVSWIRQPPRKGLEWLGVIWGSETTYYNSALKSRLTIIKDNSKSQVFLKMNSLQTDDTAIYYCAKHYYYGGSYAMDYWGQGTSVTVSS
notes: scFv fused with human IgG1 Fc; not shown: human IgG1 Fc fragment
B2: Antibody comprising scFv-1 fused with human IgG1 Fc fragment (Fc fusion)
chain: B1 chain with G100S, K103R
notes: as for B1

Biological target: T1, Soluble CD19 protein (amino acids …)
Experiment: SPR (Biacore T200), antibody captured on Protein A chip, soluble CD19 as analyte
Description: All SPR experiments were performed on a Biacore T200 (PCytiva) with HBS-EP as running buffer. The antibodies were captured by Protein A chip (LOT #10309880, Cytiva). Soluble CD19 protein (amino acids 20-291) was used as the analyte at concentrations ranging from 300 nM to 4.69 nM through the flow cells for 120 seconds followed by dissociation analysis for 300 seconds. Association rates (Kon), dissociation rates (Koff) and the constant Ka (Kon/Koff) were fitted to the results.

Row | Binder | binding result
1 | B1 | binds
2 | B2 | binds
